Among the data in the RNAGym collection of RNA variant scans (doi:10.7554/elife.80360) are self-cleavage values, retold here.

B1: Hairpin Ribozyme (parent)
chain: GUCCUCUUUCACGUGCGCGUGAAAGAGAGAAGUGAACCAGAGAAACACACGUUGUGGUAUAUUACCUGGUA

In this series the parent is B1. Nature of the series: self-cleavage, relative activity (ratio to wild type); higher = more cleavage; co-transcriptional.
Turning to G19U U52G, the self-cleavage stood at 0.741.

Regarding C10U A30G, the self-cleavage was 0.135.

Turning to C4U A71C, the self-cleavage was 0.622. For U2G U14C the value was 0.277. With A26G U67A, the self-cleavage is 0.148.

Turning to C10A C65G, the self-cleavage was 0.388. As to C3A U55G, the self-cleavage was 0.193. Take C10G A45U: the self-cleavage worked out at 0.136. For A26G U70C the value was 0.89; for C3G G19A, 0.2. For G15U U63G the value was 0.108; for A24U G68A, 0.361; for U14A G51U, 0.925.

Regarding C4A C66U, the self-cleavage stood at 0.136. For A59C C65U the value was 0.23.

Consider A30C G68A, for which the self-cleavage came out at 0.0646. To G19A A47G belongs 0.183. For G15U C16G the value was 1.09. For C38A G56U the value was 0.179; for U63C A64U, 0.185; for C12A U70A, 0.673. In the case of U7G G40U, the self-cleavage was found to be 0.214. For A30G C48G, the self-cleavage amounted to 0.0877.

In the case of A39U C50A, the self-cleavage came out at 0.139. As for C66A G68U, the self-cleavage was 0.105. To G34C G68U belongs 0.658; to A41C G51C, 1.16. For G19U A30U the value was 0.181. To U7C U60C belongs 0.905; to U2A A39U, 0.127; to C16A A36C, 0.399. Regarding G32U U67G, the self-cleavage stood at 0.121. On to U7A U53C, for which the self-cleavage turned out to be 1.07. Take G15U U60A: the self-cleavage is 0.932. To C10U A44U belongs 0.187; to C10G C50U, 0.344; to A28C U60C, 0.558. To A31U U55C belongs 0.0975; to G1A G42C, 0.213; to G19A, 0.853. For U5A U7C the value was 0.107; for U7C U8A, 0.615. C12U A28G: the self-cleavage is 1.19. For A45G C65G the value was 0.168; for C4G G34C, 1.19; for G27C G34A, 0.161. To C38G A49G belongs 0.0605; to U2C U52G, 0.0756; to U9C G29U, 0.179.

On to C10U A11U, for which the self-cleavage worked out at 0.577. Regarding C10A A71C, the self-cleavage was found to be 1.16. To C12A G27U belongs 0.249; to G40C G56A, 0.107; to A36G A59C, 0.102.

Consider A28C C50U, for which the self-cleavage is 0.168.

As for A36U A43G, the self-cleavage came out at 0.138.

For the variant A30C U67G, the self-cleavage was determined as 0.109. For G15A G42C the value was 0.294.

Take A61C U67C: the self-cleavage was 0.107. For A45U U53C, the self-cleavage amounted to 0.161. To A45U U63A belongs 0.148; to C12A U33A, 0.158. For C37U U60G the value was 0.451. To A24G C38G belongs 0.197; to A28U U60G, 0.3; to G17A U53G, 0.932. As to A28U A44G, the self-cleavage is 0.25.

On to G17A A64G, for which the self-cleavage amounted to 0.615. For G29U G54C the value was 0.12. On to G29U C48U, for which the self-cleavage amounted to 0.124. For G19U U62A, the self-cleavage is 0.268. Consider G57U C65A, for which the self-cleavage was 0.271.

As to C38G A64U, the self-cleavage stood at 0.112.

Consider C50U G57U, for which the self-cleavage is 0.183. For the variant A24G U62C, the self-cleavage is 0.257. To G29A C50A belongs 0.168; to A44G U53C, 0.248. To C6G A30U belongs 0.105; to U20A G21U, 0.642. To C46G U58C belongs 0.308; to C16A C46A, 0.197. Regarding C3U U20C, the self-cleavage came out at 0.38.

In the case of C10U G68U, the self-cleavage was 0.189. Consider C37G C50G, for which the self-cleavage amounted to 0.0454. Take A39G G56A: the self-cleavage was determined as 0.147. For A44U A49U the value was 0.109; for A30G A47U, 0.131; for C12G C50G, 0.176. Regarding C6G G29U, the self-cleavage stood at 0.0829. As to U8C C50G, the self-cleavage turned out to be 0.119. For G56U C65A the value was 0.203; for G13C C65A, 0.726.

Take A28G C66A: the self-cleavage is 0.231. To G15A A41G belongs 0.92; to A28C G40A, 0.131; to U2G U70A, 0.191. To U62C U70A belongs 0.194. For U62C U70C the value was 0.255; for A24G A28U, 0.475; for C4U A28U, 0.178. On to A24G G68A, for which the self-cleavage is 0.172. For the variant C10G G32C, the self-cleavage amounted to 0.207. Take C3U A22U: the self-cleavage was 0.395. Regarding C37A G56A, the self-cleavage turned out to be 0.156.

Turning to G32C G34U, the self-cleavage was 0.163. With A44G A61C, the self-cleavage was 0.0999. For G1U A41C the value was 0.0514; for U5G U14G, 0.152. To G40A A61G belongs 0.139.

Consider U9C G32A, for which the self-cleavage amounted to 0.125. As for U9A G27A, the self-cleavage was determined as 0.25. Consider A24C G40U, for which the self-cleavage turned out to be 0.132. To C4U U63A belongs 0.157; to C18A, 1.06; to A45U U60C, 0.112. Regarding G32C A44G, the self-cleavage is 0.137.

Turning to G29A G42C, the self-cleavage turned out to be 0.0675.

Regarding G54A, the self-cleavage stood at 0.583. For A47C C48U the value was 0.0858. To C37U G56U belongs 0.13. In the case of G56A A71G, the self-cleavage worked out at 0.245. Turning to A35G U60C, the self-cleavage is 0.917.

As for A35U C50A, the self-cleavage turned out to be 0.295. To A35U C50G belongs 0.369; to G15A A61G, 0.18.

Regarding A23U C66U, the self-cleavage came to 0.545. As to G54C U63G, the self-cleavage was determined as 0.119. On to G32C U60C, for which the self-cleavage stood at 0.0463. As to G13U A71G, the self-cleavage was 0.936. To A26G A28G belongs 1.12.

Consider A28G A44C, for which the self-cleavage came to 0.202. For C6U U63C the value was 0.167; for C12G A64C, 0.334. With G13C U58A, the self-cleavage worked out at 0.35. For C38G A44C the value was 0.17. C10U G56U: the self-cleavage worked out at 0.162. To C3U U67C belongs 0.122; to G27A A71C, 0.95. To A26G A64U belongs 0.271; to A30C A64G, 0.0788; to G13C U60A, 0.579. For G57U G68U the value was 0.196. Regarding A26C A43U, the self-cleavage stood at 0.224.

On to C16G G40U, for which the self-cleavage worked out at 0.173.

As to A11G A31C, the self-cleavage worked out at 0.0862.

On to A44U U67G, for which the self-cleavage was 0.102. Regarding A44U U67A, the self-cleavage stood at 0.143. For the variant G17A A47U, the self-cleavage was determined as 0.132. To C3A U70G belongs 0.708; to U5A U9G, 0.231. To G40C A64U belongs 0.125; to A22C G25U, 0.17. Regarding C48A G51A, the self-cleavage came to 0.106. To C3U U9C belongs 0.387; to U63A, 0.188.

As to C18A A71C, the self-cleavage was found to be 1.34. Take G17C U55G: the self-cleavage amounted to 0.196.

Regarding G40U G69C, the self-cleavage is 0.14. For U14A C46A the value was 0.232. For the variant U2G A43C, the self-cleavage is 0.115. Regarding G1A A49U, the self-cleavage stood at 0.061. Turning to C3A A24C, the self-cleavage came out at 0.775.

U2G G15U: the self-cleavage is 0.395.

As to C3G A11C, the self-cleavage was 0.137. To C65A G69A belongs 0.169. For A23G G56C the value was 0.145; for U8A G27A, 0.236.
